Source: the DeepSol protein solubility set

Assay: soluble on expression in E. coli; label from the status in PepcDB or PDB records

Soluble on expression in E. coli, not soluble:
MTKNLLVELGLEELPAYVVTPSEKQLGEKMAAFLKGKRLSFEAIQTFSTPRRLAVRVTGLADKQSDLTEDFKGPAKKIALDSDGNFTKAAQGFVRGKGLTVEDIEFREIKGEEYVYVTKEEIGQAVEAIVPGIVDVLKSLTFPVSMHWAGNSFEYIRPVHTLTVLLDEQEFDLDFLDIKGSRVSRGHRFLGQETKIQSALSYEEDLRKQFVIADPCEREQMIVDQIKEIEAKHGVRIEIDADLLNEVLNLVEYPTAFMGSFDAKYLEVPEEVLVTSMKEHQRYFVVRDQDGKLLPNFISVRNGNAERLKNVIKGNEKVLVARLEDGEFFWREDQKLVISDLVEKLNNVTFHEKIGSLREHMIRTGQITVLLAEKASLSVDETVDLARAAAIYKFDLLTGMVGEFDELQGIMGEKYTLLAGETPAVAAAIREHYMPTSAEGELPESKVGAVLAIADKLDTILSFFSVGLIPSGSNDPYALRRATQGVVRILDAFGWHIAMDELIDSLYALKFDSLTYENKAEVMDFIKARVDKMMGSTPKDIKEAVLAGSNFV
MPDRPQHPTASRQSSMVSWNHGAAGWLHCVQCGSATNPTACLDWLPPIHARSGPMYAEHDVVVLTRDVPDKSLIAGDVGAVVGRYAAGGYEVDFTAANGCTVAVVTLAGDDIRPRRRREIPHVREVA
MGSDKIHHHHHHMLNMDFSRRVVIRTHEQHWVPSPAAGVERKPLAREEAERGHATSVVRYKPGSSFSTHEHPLGEEILVLEGVFSDETGHYPAGTYIRNPPGSSHAPFSEEGCTLLVKLHQFDPRDTATVRIDTNSGHWLPGIGGLQVMPLHEFEHERVALVKWPPNEAFQPHRHFGGEEIFVLSGEFRDEHGRYPAGSWIRSPHMSQHHPFVEQETVIWVKTGHLPVNHSPET
MDKKPSKKKVAIIGGGVAGSTIAMYLSKFDIEIDLFEQGTSLVNGPPICHLHAGGNLYREISDEQCIALLTESIQTAQFFPHSLNIRPTIIAVPKDDRAEASDLLPRLNLLQKHYLELIEQSKKNEVFGRPEDYFTTFTKQELFEIAKLEPTNQPRSMTEWMIPFAKTTDLEQIKYPVVIVQEYGLSVFRMASTAQLVLSEQSNVNLHLSCRVEKLNKQDNGNWFLSFSNSDTVTSCNFDYVINCAGFRTGIIDDLAQQQTKRLVEFKAAYVTHWNSDFFGKWPEVIFHGERGTPKGMAQLTPYPNGYFQLHGMTEEITLFKDGLSRSSELSSQPQLPEKFINKITNGWKESIQQERTEKAIKHLSQFISSFETASTAGKPLYGAQQIPGDDITLRAATINYDGHGYFRAEIVKASSAIECAKQIAQTIKLSTEINTLTQPSNDDVCHLAEQFAIERGYPVELAQTYLEHHHHHH
MGSDKIHHHHHHMELRPDLLFLDVELPDVLGLNLLSEMRDEVLWDMKVVFYTSYDKYLLQALRESAFDFLLKPFETGDLRVVIERYRKAVASIPATPSSSFSSSVSALMPQQGMFMISTVTGFKLLRLEEIGYFEYLKDKRQWQVVLFNQTRLNLKRNTKAEDIIGYSQAFIQISQSAIVNVNYLAMIDGKCCQLYPPFHDKSDLVISRSFLKGLQDRFFVL
MTESDLRTHATEIHEQFSDQLEIDVDDVIERLDTLVNDYQVPISEARRSVVNTYLDEAGMDRDQLGGGDGGGNEQVNVADVDAPEEWVDVRATVVELWEPRADAVAQVGLLGDETGTIKFTKWSKSDLPSLEEGKSYALRNVVTDEYQGRFSVKLNRTTTIEELDEAIEVGDDSVEADGALVDIQSGSGLIKRCPEDDCTRVLQNGRCSEHGEVEGEFDLRIKGVLDDGEEVTEVIFDEDATEELTGIALEEAKEMAMDALDTTVVADEMRQKILGRYYRVRGPTFGRYLLADEQERLTGAVDADEILIKARSILEHHHHHH
MQCSRALALRLILIAPNGTSVKTLLRPRLDESWEQFVRRRLATPIRRQRIACDRTQKEVADIVGVSHHSIQRWELAYVRSRPIAHIVWAQAHDFLLGLELIHALGRTPRRVSRAHHVHSGR
MDELNPSPPVSEDPEHWYCTNMVGVPVGLIGSTAFNRCLRRITIHGTRETHPGLFRLLAACEYPATASEVFEHYMELEFGLAPGAHEPTQARYPTSYLDLLRGWGVESDCPKAAVLKGWVESRFGLVPTFHKQRLGLFPSSAWATYLQEKTDVRFHNNCIFQQFDLLYEYCQWSIRRFKTPGPRFVRLWRGTNDVEQQLVEGDARQRLCTVRLNNLVSFSDSKERAEEFGDWVLETEVPTVKLLFFPGLLQRQVLGYEGEFLVIGGNYKVRAYHGWFAAALEHHHHHH
MTDQMRDMIAQLMGSQHVDNKEKPSMPFDHHSVCRAFLLGVCPHDMVPDSRLQNVVSCRKVHEPAHKADYERAQKEKDHFYDVDAFEIIEHAVHLVDIEIAKVREKLEDDVKTQTSQAADSKAKQVAEIEEKIAKNVDDIEKLGNEGKIEESMKLHKYVEELREKIQEIEDSQTEVKTAGPGSNSAKLRVCEDCGAQLNITDHESRIADHYNGKMHIGMVETRETYLKMKETIDERRKEREEKLGSQRGYQRRESYGRRDRGGDRGEYRGDRDRDRRNRDRSRSRDRSYRRDDRGDRRYDRDNRDRRDRDRRY
MGSDKIHHHHHHMISMKIQQILPADPAKAILIGRIWDPVSQGPRVVSVRGEDVFDLSPGVRTVAELMEYENPLEVVLQRTDAPRWDLAEIVEASQGTDRNRPHLLAPIDLQVVKACGVTFVESMIERVIEERCGGDFTRAAEVRKAVADVLGGSLDSVRPGSEQAREAKRILSAQGMWSQYLEVGLGPDPEVFTKAPVLSSVGYGSGVGIPSFSSWNNPEPELVLILNSAGDPLGATLGNDVNLRDVEGRSALLLGMAKDNNASCAIGPLIRLFHKDFTLESLRTEEITLTVEGTDGYRMEGRNSVARISRSFEELIKAAHGSHHQYPDGFALFTGTLFAPTQDRDTEGLGFTHKNGDIVTISSPQLGTLINQTQSTEETEPWTFGITALFRYLAQTGTGGAPSITGSPVSAAPGKSAGMKIGFRN
MKVYEFGKKENPAIMLLPGTCCHWKNNFSNVIDLLIEDFFVVCVSYDGFDETEKSEFQDMVTEVRKIENYINERFQGKIHAVYGCSLGG
MIAQLPSELLSLQLPLRIRIGDAQAFDLGPDPQVTMVIRDPSLLTEITHPSLDALGKAYVEKRLDIEGPISQVIGIGDALSEALGEPDGGAPPVRESHDKDTDAEAIHYHYDLSNDFYQLWLDPEMVYSCAYFETGKEDLATAQLAKLRHLCRKLRLQPGEKLLDVGCGWGGLARLAAREFGVEVTGITLSKEQLALGRERVKAEGLEDRVTLKLLDYRDLPRDGRFDKVVSVGMFEHVGHANLGLYFQQLYEAVRPGGLVMNHGITSRYTDGRPVGKGAGDFIDRYVFPHGELPHLSLAVARMSEAGLEVVDVESLRLHYARTLDFWSANLEARLKEAARLVPEETLRIWRLYLAGCAYGFKRGWINL
MGSDKIHHHHHHVVDSLQQWQEVEAVLADLSQASQEHHYRQTHRLVQDYLDRLQLSPREQQGLEPLLKSLERMQAKLEQQVLHIAVFGLVGRGKSSLLNALVGETVFETGAIHGVTTAIATAAWPLTTDEDGVQRLRWSGLGDVQVELIDTPGIDEIDGDQREALAKRVAQQADLILFVVSGDISQLEQDTLTVLHQAHKPLLLVLNKADQYSDRDREAIRNKLADERLRHLISIDEIVTVAAAPRQAEPEYDGDRLVGTKLVSLPPQVEPLRQRIITLLLHEGQSLLALNALLQMAMVDRQVVRRKLQSRDRQAEELIWRFAIAKGMAVAINPISFVDLLGGAAIDVALILQLSQLYDLPIGEGKAIALLRTIAVGMGSLGLGEGLVRVGLSALKGLMGVAAPVSGGLSLGVYVPVALTQAGIGGFATYAIGQVTKAYLANGADWGPEGAGLLTQQILDSLDEAAILQRLRGEIDRRLRLKQL
MKHIIILGDGMADWPVKSLGDKTLLQYAKTPYMDKLARMGRNGRLITVAEGFHPGSEVANMSVLGYNLPKVYEGRGPLEAASIGVDLKPGEMAMRCNLICVEGEILKNHSSGHISTEEADVLIQYLQEKLGNDRVRFHTGVQYRHLLVIKGGNKELDCTPPHDVPLKPFRPLMVKPLVPEAQETADLINDLILKSQELLKNHPLNLKRMSEGKDPANSIWPWSPGYRPQMPAFSETFPQVKKGAVISAVDLINGIGYYAGLRRIAVEGATGLYNTNYENKVAAALEALKTDDFVYLHIEASDEAGHEGDIDLKLLTIENLDKRAVGPIYEAVKDWDEPVAIAVLPDHPTPCELRTHTSDPIPFLIWYPGIEPDEVQTYDEISACDGSYGVLKEDEFIKEFMNQKNIQ
MVADHFRYLVQYDDINREEHAHKSRIAYQEALGIAKDKMQPTHPIRLGLALNASALNFDVLNLPKEANEIAQSALDSAHRELEKMKSSLDSYDISNLKRARTLYDLLKSTHEQRVDGKEGEEADN

Soluble on expression in E. coli, soluble:
MYPYIKLIATLFRAKNSPQMNLDEKSVLNCRAGLTDIDVFVELNNARHLTYMEFGRWDFAQRTGLLSLMRKNKWAFAVGGASVRYRRRIAFWKKFTVTTQVICHDGRWFYFLQETHIKDKVCSSALIKAAFTSKQGLVPATEVLAAYGKTTPNFDVPDWVNAWIDAESQRPWPLEHHHHHH
ADKLRAACIRIQKTIRGWLLRKRYLCMQRAAITVQRYVRGYQARCYAKFLRRTKAATT
MGSSHHHHHHSSGLVPRGSHMFTTKLAEKVVSAWKAKISQPALKAAQDGVIDTVAAALGGVTEHSVQVALKYVAATGGSGDSKLWGVNQRSNMFDAAFVNGMAAHAIDFDDSFPVMRGHPSSSLVPAIFAVGEHVGANGHNCLKSYVLGIEVVATLGRAVGKGHYLAGWHPTSTLGVFGATTAAALLLGADEEQLRNAWGIAASNSCGIIKNFGTMTKPMHTGSAARNGVLSAWLSMQSFTGCQTVFDDAEGILAMYGAQPGPELFNAMQKFGTPWAIIAPGLYKKSWPSCYANHKPLAGLFAIMKEHGLTGQDISHVDVGFLPGVEKPLLYMDPRTTEEAKFSIEANIGAALLDGEVSLASFEIEHLDRPAMRAAMKKVTRFDMPSETTFSGTTGYTDIVVHTADGKIERRIEATPGSLEDPMDDAHLERKFKDCTAWMPFGESGLLFDRLRSLTADQGIKTVQP
MVTNVEGDMNYCCKVDLKPWHFWNKKGYKSFDVEGNPVEVYWDFRSAKFTSSPEPSSDFYVALVSEEEVVLLVGDYKKKAFKRTKSRPALVEAALFYKKENVFGKKCFTTRAKFYDRKKEHEIIVESSTSGPKEPEMWISIDGIVLIQVKNLQWKFRGNQTVLVDKQPVQVFWDVYDWLFSMPGTGHGLFIFKPGTTEDSDMEGSGHGGGGGGESDTSTGSRYYSTKSSNPWPPEFCLFLHAYKLE
MHHHHHHSSGVDLGTENLYFQSMHGWGYGQDDGPSHWHKLYPIAQGDRQSPINIISSQAVYSPSLQPLELSYEACMSLSITNNGHSVQVDFNDSDDRTVVTGGPLEGPYRLKQFHFHWGKKHDVGSEHTVDGKSFPSELHLVHWNAKKYSTFGEAASAPDGLAVVGVFLETGDEHPSMNRLTDALYMVRFKGTKAQFSCFNPKCLLPASRHYWTYPGSLTTPPLSESVTWIVLREPICISERQMGKFRSLLFTSEDDERIHMVNNFRPPQPLKGRVVKASF
ASTRNLMIEGENLEVLKLLQKSYAGRAKLVYIDPPYNTGKDFVYSDNFTDSLRHYLELTGQTTDGKRISSHTDASGRFHTDWLNMIYPRLKLARDLLADDGVIAVHIDEHEQHALVLVMREIFGEDNELGVAVWDKRNPKGDARGIAYQHESIVLFARDAQLLFERAPLKRPKRNAQRMLDAARGAIAGAATIADANAAYRAWVKSQTTLSGGEAMYDRISADGRVYRLVSMAWPNKKKAPDDYFVPLVHPVTGKPCPVPERGWRNPPATMQALIDKGLVEFGADETTQPQRIYFLDENMYENVPSVLPFGGSDDALMKSLGIPFDQPKPVEFAASIIGWCTDGDDLIVDFFGGSGTTGHAVMALNAADGGNRRYVLVQLPEPLDAGSKDQKAAADFCAAQRVPLNLAELTKERLRRAAARVAAEHPGTR
